Test results from patent publication US20150025225A1 (SHIONOGI, published 2015).

T1: human EL-C2 tag (human, UniProt Q9Y5X9 21-500)
T1 sequence: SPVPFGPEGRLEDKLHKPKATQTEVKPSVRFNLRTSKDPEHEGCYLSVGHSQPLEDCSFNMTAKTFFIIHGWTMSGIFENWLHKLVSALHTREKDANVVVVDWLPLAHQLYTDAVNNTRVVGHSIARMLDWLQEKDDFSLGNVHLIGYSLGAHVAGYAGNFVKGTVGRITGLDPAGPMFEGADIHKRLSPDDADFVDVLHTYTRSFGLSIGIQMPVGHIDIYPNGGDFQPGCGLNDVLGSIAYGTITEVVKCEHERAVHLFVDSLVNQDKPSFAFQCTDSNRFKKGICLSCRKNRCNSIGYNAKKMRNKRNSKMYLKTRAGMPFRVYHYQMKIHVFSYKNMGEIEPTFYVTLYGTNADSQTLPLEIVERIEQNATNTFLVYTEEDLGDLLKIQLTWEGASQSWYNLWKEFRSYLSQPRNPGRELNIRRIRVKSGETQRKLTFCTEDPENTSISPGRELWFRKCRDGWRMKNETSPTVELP

T2: human EL[331-459]-mouse EL-C2 tag (human/mouse chimera, UniProt Q9WVG5 21-500 (mouse entry))
T2 construct: used as heparin extract of transfected HEK293F cells; also called human-mouse chimera EL; Human-Mouse chimeric EL
T2 chain: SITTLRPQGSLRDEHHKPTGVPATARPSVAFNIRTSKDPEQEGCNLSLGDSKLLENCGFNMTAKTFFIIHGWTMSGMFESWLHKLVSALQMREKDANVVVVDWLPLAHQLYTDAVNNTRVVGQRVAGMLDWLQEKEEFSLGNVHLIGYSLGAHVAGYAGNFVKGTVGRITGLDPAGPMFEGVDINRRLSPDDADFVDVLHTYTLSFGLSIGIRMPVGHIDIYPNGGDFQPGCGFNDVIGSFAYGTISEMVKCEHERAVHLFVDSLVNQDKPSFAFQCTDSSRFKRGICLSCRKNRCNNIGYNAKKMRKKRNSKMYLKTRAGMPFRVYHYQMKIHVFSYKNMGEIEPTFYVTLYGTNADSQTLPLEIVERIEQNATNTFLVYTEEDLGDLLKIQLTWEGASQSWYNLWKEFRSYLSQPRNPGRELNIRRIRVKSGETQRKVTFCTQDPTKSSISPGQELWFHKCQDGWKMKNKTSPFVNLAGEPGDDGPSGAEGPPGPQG

T3: Baboon EL-C2 tag (baboon, UniProt Q9Y5X9 21-500 (human entry), limits assumed)
T3 construct: used as heparin extract of transfected HEK293F cells; also called baboon EL heparin extract
T3 chain: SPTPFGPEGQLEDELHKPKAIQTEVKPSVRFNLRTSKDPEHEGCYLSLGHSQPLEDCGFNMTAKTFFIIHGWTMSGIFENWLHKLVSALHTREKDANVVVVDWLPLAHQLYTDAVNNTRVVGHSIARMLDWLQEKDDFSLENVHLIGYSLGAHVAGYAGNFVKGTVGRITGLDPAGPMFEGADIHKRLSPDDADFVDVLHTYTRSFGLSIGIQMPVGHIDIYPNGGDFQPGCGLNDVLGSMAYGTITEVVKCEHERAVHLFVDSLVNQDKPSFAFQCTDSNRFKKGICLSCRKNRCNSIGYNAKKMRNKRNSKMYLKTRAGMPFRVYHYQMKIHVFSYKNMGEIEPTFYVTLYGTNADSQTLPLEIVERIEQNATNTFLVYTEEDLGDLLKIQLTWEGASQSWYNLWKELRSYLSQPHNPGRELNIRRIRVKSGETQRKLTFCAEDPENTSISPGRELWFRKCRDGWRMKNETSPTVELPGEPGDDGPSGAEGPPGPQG

T4: human EL-411-459 fragment (human)
T4 construct: Used as HEK293 lysate
T4 chain: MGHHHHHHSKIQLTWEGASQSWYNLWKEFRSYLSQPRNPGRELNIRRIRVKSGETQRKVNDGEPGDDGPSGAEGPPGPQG

T5: human EL-411-500 fragment (human)
T5 construct: Used as HEK293 lysate
T5 chain: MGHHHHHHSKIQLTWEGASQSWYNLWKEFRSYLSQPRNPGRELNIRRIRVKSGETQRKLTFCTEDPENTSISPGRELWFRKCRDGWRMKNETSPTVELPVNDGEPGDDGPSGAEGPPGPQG


Experiments:
human EL-C2 tag = target: T1, human EL-C2 tag; assay: cell-based or functional assay
[1] = target: T2, human EL[331-459]-mouse EL-C2 tag; assay: ELISA-type titration, A450 against antibody concentration; protocol not described in the text
Baboon EL-C2 tag = target: T3, Baboon EL-C2 tag; assay: as above
[2] = target: T4, human EL-411-459 fragment; assay: sandwich ELISA: 12B10 (5 ug/mL) captured on anti-mouse IgG-Fc plate, serial dilutions of fragment lysate, detection with biotin anti-C2-tag Fab and HRP-streptavidin, A450
Description: (§1) Assay buffer containing 15 μl of 12B10 antibody (5 μg/mL) was added to immobilized plate of anti-mouse IgG-Fc antibody and incubated for 2 hr. […] After washing the wells three times with 90 μl of washing buffer, 15 μL of assay buffer containing biotin-labeled anti-C2-tag (Fab) antibody and HRP-labeled Streptavidin (Thermo scientific) were added to the wells and incubated at room temperature for 1 hr. After washing the wells three times with 90 μl of washing buffer, 15 μL of TMB+-Substrate-Chromogen (DAKO) was added and incubated at room temperature for 30 min. The reaction was stopped with adding 15 μL of 0.05M H₂SO₄ and then measured absorbance 450 nm.

[3] = target: T5, human EL-411-500 fragment; assay: as above
Description: as §1

[4] = target: T4, human EL-411-459 fragment; assay: sandwich ELISA with human EL fragment lysate, as Example 10

Row | Binder | IC50 of EL enzyme activity (NEFA release from HDL) (human EL-C2 tag) [nM] | EC50 (read off the curve) [1] [µg/mL] | EC50 (read off the curve) (Baboon EL-C2 tag) [µg/mL] | binding result [2] | binding result [3] | binding result [4]
1 | 12B10 antibody (antibody, IgG2a, V domains shown) VH: QVTLKESGPGILKPSQTLSLTCSFSGFSLSTSGMGVGWIRQPSGKGLEWLAHIWWNDEKYYNPSLKSQLTISKDTSRNQVFLKITSVDTADTATYYCARSYDGSPFPSWGQGTLVTVSA VL: DIQMTQSPSSLSASLGGKVTITCKASQDINKYIAWFQHKPGKGPRLLMAYPFTLQPGIPSRFSGNGSGRDYSFSISNLEPEDIATYYCLQYDNLLWTFGGGTRLEIK | 47 | ~0.04 | ~0.02 | binds | binds | 
2 | 47B2 antibody (antibody, IgG2a, V domains shown) VH: QVALKESGPGILQPSQTLSLTCSFSGFSLSTSGMGVGWIRQPSGKGLEWLAHIWWHGNKYYSTGLKSRLTISKDTSNNQVFLKIASVDTADTATYYCARISAGYPLDYWGQGTSVTVSS VL: DIQMTQSPSSLSASLGGKVTITCKASQDINKYIVWYQHKPGKGPRLLIHYTSTLQPGFPSRFSGSGSGRDYSLSITNLEPEDIATYYCLQYDNLLWTFGGGTKLEIK |  |  |  |  |  | binds
